Test results: patent publication US20170275666A1, “Methods for Preparing Rebaudioside I and Uses” (The Coca-Cola Company, priority 2014, published 2017)

Experiment: Directed evolution of UGT76G1, conversion of Rebaudioside D to Rebaudioside M (round 1)
Assay type: biochemical
Conditions: 0.5 mM Rebaudioside D, 2.5 mM UDP-Glucose, 100 μL fresh lysate, 30° C., pH 7.2
Text: Starting from the amino acid sequence of UGT76G1, as is described in Genbank (AAR06912.1), different mutations at various amino acid positions were identified that could alter the activity of the enzyme for the transformation of Rebaudioside D (Reb D) to Rebaudioside M (Reb M). This list of mutations, designed by DNA2.0 ProteinGPS™ strategy, was subsequently used to synthesize 96 variant genes that contained 3, 4 or 5 of these mutations that were codon-optimized for expression in E. coli. The genes were subcloned in the pET30a+ plasmid and used for transformation of E. coli BL21 (DE3) chemically competent cells. The obtained cells were grown in Petri-dishes on solid LB medium in the presence of Kanamycin. Suitable colonies were selected and allowed to grow in liquid LB medium in tubes. Glycerol was added to the suspension as cryoprotectant and 400 μL aliquots were stored at −20° C. and at −80° C.
These storage aliquots of E. coli BL21(DE3) containing the pET30a+_UGT76G1var plasmids were thawed and added to LBGKP medium (20 g/L Luria Broth Lennox; 50 mM PIPES buffer pH 7.00; 50 mM Phosphate buffer pH 7.00; 2.5 g/L glucose and 50 mg/L of Kanamycine). This culture was allowed to shake in a 96 microtiter plate at 135 rpm at 30° C. for 8 h.
3.95 mL of production medium containing 60 g/L of Overnight Express™ Instant TB medium (Novagen®), 10 g/L of glycerol and 50 mg/L of Kanamycin was inoculated with 50 μL of above described culture. In a 48 deepwell plate the resulting culture was allowed to stir at 20° C. The cultures gave significant growth and a good OD (600 nm; 1 cm) was obtained. After 44 h, the cells were harvested by centrifugation and frozen.
Lysis was performed by addition of Bugbuster® Master mix (Novagen®) to the thawed cells and the lysate was recovered by centrifugation. Activity tests were performed with 100 μL of fresh lysate that was added to a solution of Rebaudioside D (final concentration 0.5 mM), MgCl2 (final concentration 3 mM) and UDP-Glucose (final concentration 2.5 mM) in 50 mM phosphate buffer pH 7.2.
The reaction was allowed to run at 30° C. and samples were taken after 2, 4, 7 and 24 h. to determine conversion and initial rate by HPLC (CAD detection) using the analytical method that was described above for the transformation of Rebaudioside D to Rebaudioside M. The results are depicted in the following table.

| Molecule | Conversion Reb D to Reb M after 24 h (%) | initial rate (Reb M area/min) |
| --- | --- | --- |
| UGT76G1var8: UGT76G1 variant, mutations E224A_Q266S_Q342E (protein, UniProt Q6VAB4 1-458, looked up, variant E224A Q266S Q342E) UDP-glycosyltransferase 76G1: MENKTETTVRRRRRIILFPVPFQGHINPILQLANVLYSKGFSITIFHTNFNKPKTSNYPHFTFRFILDNDPQDERISNLPTHGPLAGMRIPIINEHGADELRRELELLMLASEEDEEVSCLITDALWYFAQSVADSLNLRRLVLMTSSLFNFHAHVSLPQFDELGYLDPDDKTRLEEQASGFPMLKVKDIKSAYSNWQILKEILGKMIKQTKASSGVIWNSFKALEESELETVIREIPAPSFLIPLPKHLTASSSSLLDHDRTVFSWLDQQPPSSVLYVSFGSTSEVDEKDFLEIARGLVDSKQSFLWVVRPGFVKGSTWVEPLPDGFLGERGRIVKWVPQEEVLAHGAIGAFWTHSGWNSTLESVCEGVPMIFSDFGLDQPLNARYMSDVLKVGVYLENGWERGEIANAIRRVMVDEEGEYIRQNARVLKQKADVSLMKGGSSYESLESLVSYISSL | 0.5% | 2.3E+04 Reb M area/min |
| UGT76G1var10: UGT76G1 variant, mutations A33G_L246F_Q342E (protein, UniProt Q6VAB4 1-458, looked up, variant A33G L246F Q342E) UDP-glycosyltransferase 76G1: MENKTETTVRRRRRIILFPVPFQGHINPILQLGNVLYSKGFSITIFHTNFNKPKTSNYPHFTFRFILDNDPQDERISNLPTHGPLAGMRIPIINEHGADELRRELELLMLASEEDEEVSCLITDALWYFAQSVADSLNLRRLVLMTSSLFNFHAHVSLPQFDELGYLDPDDKTRLEEQASGFPMLKVKDIKSAYSNWQILKEILGKMIKQTKASSGVIWNSFKELEESELETVIREIPAPSFLIPFPKHLTASSSSLLDHDRTVFQWLDQQPPSSVLYVSFGSTSEVDEKDFLEIARGLVDSKQSFLWVVRPGFVKGSTWVEPLPDGFLGERGRIVKWVPQEEVLAHGAIGAFWTHSGWNSTLESVCEGVPMIFSDFGLDQPLNARYMSDVLKVGVYLENGWERGEIANAIRRVMVDEEGEYIRQNARVLKQKADVSLMKGGSSYESLESLVSYISSL | 0.3% | −7.7E+02 Reb M area/min |
| UGT76G1var11: UGT76G1 variant, mutations F22L_A33G_V310I (protein, UniProt Q6VAB4 1-458, looked up, variant F22L A33G V310I) UDP-glycosyltransferase 76G1: MENKTETTVRRRRRIILFPVPLQGHINPILQLGNVLYSKGFSITIFHTNFNKPKTSNYPHFTFRFILDNDPQDERISNLPTHGPLAGMRIPIINEHGADELRRELELLMLASEEDEEVSCLITDALWYFAQSVADSLNLRRLVLMTSSLFNFHAHVSLPQFDELGYLDPDDKTRLEEQASGFPMLKVKDIKSAYSNWQILKEILGKMIKQTKASSGVIWNSFKELEESELETVIREIPAPSFLIPLPKHLTASSSSLLDHDRTVFQWLDQQPPSSVLYVSFGSTSEVDEKDFLEIARGLVDSKQSFLWVIRPGFVKGSTWVEPLPDGFLGERGRIVKWVPQQEVLAHGAIGAFWTHSGWNSTLESVCEGVPMIFSDFGLDQPLNARYMSDVLKVGVYLENGWERGEIANAIRRVMVDEEGEYIRQNARVLKQKADVSLMKGGSSYESLESLVSYISSL | 0.4% | 3.8E+04 Reb M area/min |
| UGT76G1var9: UGT76G1 variant, mutations E231A_D301N_G348P (protein, UniProt Q6VAB4 1-458, looked up, variant E231A D301N G348P) UDP-glycosyltransferase 76G1: MENKTETTVRRRRRIILFPVPFQGHINPILQLANVLYSKGFSITIFHTNFNKPKTSNYPHFTFRFILDNDPQDERISNLPTHGPLAGMRIPIINEHGADELRRELELLMLASEEDEEVSCLITDALWYFAQSVADSLNLRRLVLMTSSLFNFHAHVSLPQFDELGYLDPDDKTRLEEQASGFPMLKVKDIKSAYSNWQILKEILGKMIKQTKASSGVIWNSFKELEESELATVIREIPAPSFLIPLPKHLTASSSSLLDHDRTVFQWLDQQPPSSVLYVSFGSTSEVDEKDFLEIARGLVNSKQSFLWVVRPGFVKGSTWVEPLPDGFLGERGRIVKWVPQQEVLAHPAIGAFWTHSGWNSTLESVCEGVPMIFSDFGLDQPLNARYMSDVLKVGVYLENGWERGEIANAIRRVMVDEEGEYIRQNARVLKQKADVSLMKGGSSYESLESLVSYISSL | 52.0% | 4.9E+07 Reb M area/min |
| UGT76G1var13: UGT76G1 variant, mutations L243A_S357C_A385T (protein, UniProt Q6VAB4 1-458, looked up, variant L243A S357C A385T) UDP-glycosyltransferase 76G1: MENKTETTVRRRRRIILFPVPFQGHINPILQLANVLYSKGFSITIFHTNFNKPKTSNYPHFTFRFILDNDPQDERISNLPTHGPLAGMRIPIINEHGADELRRELELLMLASEEDEEVSCLITDALWYFAQSVADSLNLRRLVLMTSSLFNFHAHVSLPQFDELGYLDPDDKTRLEEQASGFPMLKVKDIKSAYSNWQILKEILGKMIKQTKASSGVIWNSFKELEESELETVIREIPAPSFAIPLPKHLTASSSSLLDHDRTVFQWLDQQPPSSVLYVSFGSTSEVDEKDFLEIARGLVDSKQSFLWVVRPGFVKGSTWVEPLPDGFLGERGRIVKWVPQQEVLAHGAIGAFWTHCGWNSTLESVCEGVPMIFSDFGLDQPLNTRYMSDVLKVGVYLENGWERGEIANAIRRVMVDEEGEYIRQNARVLKQKADVSLMKGGSSYESLESLVSYISSL | 0.2% | −3.3E+04 Reb M area/min |
| UGT76G1var14: UGT76G1 variant, mutations A239I_F265I_V396F (protein, UniProt Q6VAB4 1-458, looked up, variant A239I F265I V396F) UDP-glycosyltransferase 76G1: MENKTETTVRRRRRIILFPVPFQGHINPILQLANVLYSKGFSITIFHTNFNKPKTSNYPHFTFRFILDNDPQDERISNLPTHGPLAGMRIPIINEHGADELRRELELLMLASEEDEEVSCLITDALWYFAQSVADSLNLRRLVLMTSSLFNFHAHVSLPQFDELGYLDPDDKTRLEEQASGFPMLKVKDIKSAYSNWQILKEILGKMIKQTKASSGVIWNSFKELEESELETVIREIPIPSFLIPLPKHLTASSSSLLDHDRTVIQWLDQQPPSSVLYVSFGSTSEVDEKDFLEIARGLVDSKQSFLWVVRPGFVKGSTWVEPLPDGFLGERGRIVKWVPQQEVLAHGAIGAFWTHSGWNSTLESVCEGVPMIFSDFGLDQPLNARYMSDVLKVGFYLENGWERGEIANAIRRVMVDEEGEYIRQNARVLKQKADVSLMKGGSSYESLESLVSYISSL | 5.3% | 1.5E+06 Reb M area/min |
| UGT76G1var12: UGT76G1 variant, mutations L243P_K303G_A352G (protein, UniProt Q6VAB4 1-458, looked up, variant L243P K303G A352G) UDP-glycosyltransferase 76G1: MENKTETTVRRRRRIILFPVPFQGHINPILQLANVLYSKGFSITIFHTNFNKPKTSNYPHFTFRFILDNDPQDERISNLPTHGPLAGMRIPIINEHGADELRRELELLMLASEEDEEVSCLITDALWYFAQSVADSLNLRRLVLMTSSLFNFHAHVSLPQFDELGYLDPDDKTRLEEQASGFPMLKVKDIKSAYSNWQILKEILGKMIKQTKASSGVIWNSFKELEESELETVIREIPAPSFPIPLPKHLTASSSSLLDHDRTVFQWLDQQPPSSVLYVSFGSTSEVDEKDFLEIARGLVDSGQSFLWVVRPGFVKGSTWVEPLPDGFLGERGRIVKWVPQQEVLAHGAIGGFWTHSGWNSTLESVCEGVPMIFSDFGLDQPLNARYMSDVLKVGVYLENGWERGEIANAIRRVMVDEEGEYIRQNARVLKQKADVSLMKGGSSYESLESLVSYISSL | 0.5% | 8.7E+04 Reb M area/min |
